The record followed here is article PMC11192940 (2024).

As a reminder, the koff is the first-order rate constant of dissociation. Lower therefore signals a long-lived complex.

In this assay the target is GST-Rheb protein (UniProt Q15382 1-169). As to the kind of experiment: BLI.
GST-Rheb protein, sequence (Q15382 1-169): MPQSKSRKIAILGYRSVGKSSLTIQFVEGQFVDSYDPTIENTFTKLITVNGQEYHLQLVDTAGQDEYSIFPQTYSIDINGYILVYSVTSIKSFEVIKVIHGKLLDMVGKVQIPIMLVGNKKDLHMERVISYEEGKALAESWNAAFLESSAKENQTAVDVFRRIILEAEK

B1: His-IL-37d, recombinant human IL-37d protein with a TAT peptide (pET-22b-TAT-his-IL-37d; mature IL-37d 21–197aa) (other)
chain: YGRKKRRQRRREPQCCLEGPKVKNLNPKKFSIHDQDHKVLVLDSGNLIAVPDKNYIRPEIFFALASSLSSASAEKGSPILLGVSKGEFCLYCDKDKGQSHPSLQLKKEKLMKLAAQKESARRPFIFYRAQVGSWNMLESAAHPGWFICTSCNCNEPVGVTDKFENRKHIEFSFQPVCKAEMSPSEVSD
In turn, B1 returned an off-rate constant (koff) of 0.00194 s⁻¹.
